The text below walks through data of US20080219974A1.

The target in this assay is human V158 FcγRIIIa (human) (UniProt P08637). Kind of assay: not described in this filing.
Sequence of human V158 FcγRIIIa (human) (P08637 17-208 F176V limits assumed): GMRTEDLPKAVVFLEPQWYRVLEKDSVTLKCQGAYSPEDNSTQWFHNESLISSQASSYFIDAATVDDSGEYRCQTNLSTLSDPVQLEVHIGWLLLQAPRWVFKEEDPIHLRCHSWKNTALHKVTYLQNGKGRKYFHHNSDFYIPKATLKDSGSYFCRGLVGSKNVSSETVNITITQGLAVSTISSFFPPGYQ

Substance human WT IgG1 (antibody) returned a Kd of 240 nM.
